Measurements published in publication PMC10220053.
pKd: −log10 of the molar value.

Molecular target: Eaf3^MRG–Rco1^PHD1–SID complex (S. cerevisiae) (UniProt Q12432)
Test: ITC; H3 1–12 peptides with the Eaf3^MRG–Rco1^PHD1–SID complex or with Rco1^PHD1 alone

Eaf3^MRG–Rco1^PHD1–SID complex (S. cerevisiae), sequence (Q12432 218-401, chain 1 of 2): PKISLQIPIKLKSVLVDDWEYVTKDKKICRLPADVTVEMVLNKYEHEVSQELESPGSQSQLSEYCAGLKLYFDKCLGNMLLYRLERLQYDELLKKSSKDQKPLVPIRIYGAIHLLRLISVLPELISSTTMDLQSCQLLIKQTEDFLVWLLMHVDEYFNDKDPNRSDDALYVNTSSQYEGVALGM
Eaf3^MRG–Rco1^PHD1–SID complex (S. cerevisiae), sequence (Q04779 240-376, chain 2 of 2, further chain): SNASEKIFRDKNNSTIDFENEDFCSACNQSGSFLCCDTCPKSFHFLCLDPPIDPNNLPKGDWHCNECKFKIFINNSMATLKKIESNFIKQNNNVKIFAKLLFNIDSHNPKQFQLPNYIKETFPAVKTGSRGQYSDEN

pKd	Substance
4.19	H3K4me1^1–12 peptide (from UniProt P61830 2-13)
3.44	H3K4me2^1–12 peptide (from UniProt P61830 2-13)
4.66	H3K4me0^1–12 peptide (from UniProt P61830 2-13)
